Assay [1] concerns the target Human TNFa (recombinant) (human) (UniProt P01375). As to the kind of experiment: SPR (Biacore), antibody captured on Protein A CM5 chip, TNFa as analyte. For orientation: Surface plasmon resonance follows binding to a sensor surface in real time, without labels.
Assay [2] addresses huCD64/human FcRI (R&D Systems 1257FC) (human) (UniProt P12314). Put plainly: SPR (Biacore), antibody captured on Protein A CM5 chip, CD64 as analyte.
The target of assay [3] is Human TNFa (recombinant) (human) (UniProt P01375). As to the kind of experiment: SPR (Biacore), average of three BYL batches, TNFa as analyte.
For assay [4], the target named is huCD64/human FcRI (R&D Systems 1257FC) (human) (UniProt P12314). As to the kind of experiment: SPR (Biacore), average of three BYL batches, CD64 as analyte.

This is an account of results in patent US20260072038A1.

As for “Humira CF DB3 (adalimumab produced in BYL/ALiCE, batch DB3) (antibody)”, in assay [1], the dissociation constant (Kd) (commonly the equilibrium constant for the complex coming apart) is 0.122 nM; the dissociation rate constant (koff) (as a rule, the rate constant with which the complex falls apart) came to 5.83e-05 s⁻¹; the association rate constant (kon) (usually a measure of how fast the partners come together) was found to be 478000 M⁻¹ s⁻¹. In assay [2], this substance showed a dissociation constant Kd of 0.367 nM, an off-rate (koff) of 0.000252 s⁻¹ and a kon of 686000 M⁻¹ s⁻¹.
As for “BYL-mAb (adalimumab produced in BYL, average of the three batches) (antibody)”, the Kd was determined as 0.134 nM in assay [3] and 0.353 nM in assay [4].
On to “Humira CF CHJ (adalimumab produced in BYL/ALiCE, batch CHJ) (antibody)”, for which, in assay [2], the Kd was found to be 0.346 nM.
On the same count and under the same terms, for “Humira CF DAK (adalimumab produced in BYL/ALiCE, batch DAK) (antibody)” the value was 0.346 nM.
With “Reference IgG Adalinumab (Humira) (ABIN5668145), commercial adalimumab reference product expressed from CHO cells (antibody)”, in assay [1], the dissociation constant Kd is 0.185 nM, the off-rate constant (koff) is 8.37e-05 s⁻¹ and the on-rate constant (kon) amounted to 453000 M⁻¹ s⁻¹. In assay [2], this substance had a dissociation constant (Kd) of 0.158 nM, a koff of 0.000152 s⁻¹ and a kon of 959000 M⁻¹ s⁻¹.
